Molecular target: CP* (calprotectin, S100A8 C42S / S100A9 C3S heterodimer) (UniProt P05109)
Experiment: crystal structure; Ca2+-loaded CP* with 0.7 equivalents of Zn2+; 20 mM Tris pH 7.5, 100 mM NaCl, 2 mM MgCl2; hanging drop, 20°C, 1.0M sodium citrate (pH 5.2), 28% MPD; 1.87 Å

- stoichiometry N: 2
Substance: CP* (calprotectin, S100A8 C42S / S100A9 C3S heterodimer) (from UniProt P05109 1-87; P06702 5-112) (complex)
